Reference: patent US9073982B2, “Targets for regulation of angiogenesis” (The University of North Carolina at Chapel Hill, priority 2008, dated 2015)
Entries after “also recorded” stand apart in the source; their conditions may differ.

Assays:
[1] = tested on: mouse endothelial cells (MEC); experiment: Endothelial cell tube formation assay, MEC cells; type: cell-based; settings: SFRP2 concentration range, 8 hours
Description: The tube formation properties of SFRP2 on mouse endothelial cells (MEC) cells were evaluated using an endothelial cell tube formation assay. ECMATRIX (Chemicon) was thawed, diluted and solidified in a 96 well plate according to the manufacturer's instructions. 1×10^4 cells/well in 150 μl of DMEM (celigro) with 10% FBS (HyClone) and a concentration range (7-7000 pM) of SFRP2 (US Biologicals) were seeded onto the matrix and returned to 37° C., 5% CO2 for 8 hours. Images were acquired using the Nikon Eclipse TS100 microscope at 4× magnification with a Nikon CoolPix 995 digital camera. Results were quantified by counting the number of branch points.
To evaluate whether tacrolimus inhibits SFRP2 induced tube formation, MEC cells were treated as above with SFRP2 7 nM with and without tacrolimus 100 uM for 8 hours and branch points were determined as described above. To evaluate whether tacrolimus reversed established tubes, cells were incubated with SFRP2 7 nM for 8 hours and then BSA or tacrolimus 100 μM was added to SFRP2 treated cells for an additional 4 hours, and then the number of branch points were counted. […] Tacrolimus was not cytotoxic to MEC cells, as only 5% of tacrolimus-treated cells took up trypan blue dye (data not shown).
The tube formation properties of SFRP2 on MEC cells were evaluated using an endothelial cell tube formation assay. ECMATRIX (Chemicon) was thawed, diluted and solidified in a 96 well plate according to the manufactures instructions. 1×10^4 cells/well in 150 μl of DMEM (cellgro) with 10% FBS (HyClone) and a concentration range (3-3000 pM) of SFRP2 (US Biologicals) were seeded onto the matrix and returned to 37° C., 5% CO2 for 8 hours. Images were acquired using the Nikon Eclipse TS100 microscope at 4× magnification with a Nikon CoolPix 995 digital camera. Results were quantified by counting the number of branch point. To evaluate whether tacrolimus inhibits SFRP2 induced tube formation, MEC cells were treated as above with SFRP2 30 nM with and without tacrolimus (1 μM-100 uM) for 8 hours and branch points were determined as described above. To evaluate whether inhibitors of SFRP2-mediated angiogenesis would inhibit the growth of SVR tumor cells, SVR cells were treated with tacrolimus (1 μM-100 μM) or with a rabbit polyclonal antibody to SFRP-2 (H-140) (Santa Cruz Biotechnology, Santa Cruz, Calif., catalogue 4 sc-13940) in the tube formation assay.

[2] = tested on: mouse endothelial cells (MEC); experiment: Scratch wound assay on mouse endothelial cells; type: cell-based; settings: SFRP2 0.7 pM-700 pM, 16 to 32 hours
Description: The migration properties of SFRP2 on mouse endothelial cells (MEC) cells were evaluated using a scratch wound assay. Mouse endothelial cells were plated at 10,000 cells/well into a 96 well plate and allowed to become confluent in DMEM with 10% FBS. The cells were quiesced in DMEM without serum for 18 hours. The wound was formed using a 1 ml pipette tip and a 0.7 pM-700 pM dose curve of mouse recombinant SFRP2 (US Biologicals, Swampscott) was added to the cells. Each concentration was performed in triplicate and the experiment was repeated three times with similar results. Migration was measured from 16 to 32 hours. Migration distance was measured at each time point. Statistical differences between SFRP2 and control were evaluated with an unpaired two-tailed Student's t-test, with p<0.05 being significant.

B1: SFRP2: mouse recombinant SFRP2 (US Biologicals), secreted frizzled-related protein 2 (protein)
chain: LFLFGQPDFSYKRSNCKPIPANLQLCHGIEYQNMRLPNLLGHETMKEVLEQAGAWIPLVMKQCHPDTKKFLCSLFAPVCLDDLDETIQPCHSLCVQVKDRCAPVMSAFGFPWPDMLECDRFPQDNDLCIPLASSDHLLPATEEAPKVCEACKTKNEDDNDIMETLCKNDFALKIKVKEITYINRDTKIILETKSKTIYKLNGVSERDLKKSVLWLKDSLQCTCEEMNDINAPYLVMGQKQGGELVITSVKRWQKGQREFKRISRSIRKLQC
B1 was tested, and the “endothelial tube formation (branch points)” value [1] was “induced by SFRP2 in a concentration-dependent manner; also recorded: induces endothelial tube formation at 8 hours in a concentration-dependent manner” and the endothelial cell migration [2] was “increases endothelial cell migration”.
